Reference: publication PMC10204870, “Analysis of aptamer-target binding and molecular mechanisms by thermofluorimetric analysis and molecular dynamics simulation”

Target: T1, alpha-fetoprotein (AFP) (Homo sapiens, UniProt P02771 19-609)
T1 sequence: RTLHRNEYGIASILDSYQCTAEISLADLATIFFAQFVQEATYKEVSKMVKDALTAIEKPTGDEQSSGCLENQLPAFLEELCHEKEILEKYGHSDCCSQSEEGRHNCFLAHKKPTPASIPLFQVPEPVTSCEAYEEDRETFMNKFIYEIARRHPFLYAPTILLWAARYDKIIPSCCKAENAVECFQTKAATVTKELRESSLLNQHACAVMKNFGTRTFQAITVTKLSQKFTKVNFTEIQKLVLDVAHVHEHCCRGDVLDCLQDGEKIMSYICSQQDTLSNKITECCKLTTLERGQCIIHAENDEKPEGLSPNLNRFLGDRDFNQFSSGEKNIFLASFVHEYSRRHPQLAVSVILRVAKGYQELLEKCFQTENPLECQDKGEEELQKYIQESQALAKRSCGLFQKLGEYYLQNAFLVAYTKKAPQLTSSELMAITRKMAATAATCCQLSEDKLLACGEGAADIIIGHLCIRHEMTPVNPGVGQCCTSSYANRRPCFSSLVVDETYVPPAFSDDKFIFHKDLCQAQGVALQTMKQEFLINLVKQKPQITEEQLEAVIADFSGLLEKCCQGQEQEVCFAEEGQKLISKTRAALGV
Assay: thermofluorimetric analysis (EvaGreen melting curves); 1.25-80 nM and 1-5 nM aptamer; HEPES buffer with Na+, K+, Mg2+, Ca2+; 20 mM HEPES-Na, 120 mM NaCl, 4 mM KCl, 2 mM MgCl2, 1 mM CaCl2, pH 7.35 (aptamer diluent); 30 min at room temperature, then melt 4-80 C with EvaGreen; AFP stock
Details: protein: recombinant; label: EvaGreen dye (non-covalent)

B1: AP273 (ssDNA)
DNA: GTGACGCTCCTAACGCTGACTCAGGTGCAGTTCTCGACTCGGTCTTGATGTGGGTCCTGTCCGTCCGAACCAATC
  binding result: binds
